Measured values reported in PMC3335157.
pKd: −log10 of the molar value.

Tests used:
[1] = biological target: Full-length αvβ3 integrin (UniProt P06756)
[2] = biological target: Full-length αvβ3 integrin (UniProt P06756); assay: SPR; BIAcore T100; αvβ3 integrin immobilised via primary amines on a CM5 chip (1341-2655 RU); NC1 α4(IV) injected at several concentrations and flow rates; 25°C; 10 mM Hepes pH 7.4, 150 mM NaCl, 1 mM MgCl2, 2 mM MnCl2, 50 mM β-octyl-D-glucopyranoside; global fit, two-state model

Chain of UniProt P06756 (P06756 31-1048, chain 1 of 2): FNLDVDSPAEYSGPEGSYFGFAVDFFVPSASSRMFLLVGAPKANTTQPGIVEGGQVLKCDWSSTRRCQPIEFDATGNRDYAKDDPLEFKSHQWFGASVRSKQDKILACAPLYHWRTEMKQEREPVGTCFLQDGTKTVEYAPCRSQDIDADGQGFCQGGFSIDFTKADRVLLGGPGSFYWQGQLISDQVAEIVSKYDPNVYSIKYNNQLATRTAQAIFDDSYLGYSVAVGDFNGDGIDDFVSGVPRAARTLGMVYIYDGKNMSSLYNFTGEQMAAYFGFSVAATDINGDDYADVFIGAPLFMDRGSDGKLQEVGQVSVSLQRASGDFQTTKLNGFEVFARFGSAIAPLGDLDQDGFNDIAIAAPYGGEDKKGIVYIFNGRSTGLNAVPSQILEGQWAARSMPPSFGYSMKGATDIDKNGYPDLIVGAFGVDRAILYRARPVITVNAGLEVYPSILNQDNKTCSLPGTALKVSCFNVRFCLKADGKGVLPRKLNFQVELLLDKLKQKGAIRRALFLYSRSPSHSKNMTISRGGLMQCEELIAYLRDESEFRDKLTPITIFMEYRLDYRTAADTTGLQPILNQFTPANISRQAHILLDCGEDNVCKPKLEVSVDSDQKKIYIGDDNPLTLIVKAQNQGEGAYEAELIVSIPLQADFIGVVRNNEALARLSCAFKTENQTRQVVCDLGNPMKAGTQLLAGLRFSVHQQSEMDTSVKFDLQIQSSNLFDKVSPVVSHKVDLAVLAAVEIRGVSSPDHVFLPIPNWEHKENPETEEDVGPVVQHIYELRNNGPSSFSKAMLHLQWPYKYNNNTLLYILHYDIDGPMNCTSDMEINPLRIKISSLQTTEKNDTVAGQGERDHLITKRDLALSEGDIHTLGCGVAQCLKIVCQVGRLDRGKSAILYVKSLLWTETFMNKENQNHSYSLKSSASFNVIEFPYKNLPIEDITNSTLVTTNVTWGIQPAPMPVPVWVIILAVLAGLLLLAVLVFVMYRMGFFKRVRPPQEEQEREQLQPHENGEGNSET
Chain of UniProt P06756 (P05106 27-788, chain 2 of 2, further chain): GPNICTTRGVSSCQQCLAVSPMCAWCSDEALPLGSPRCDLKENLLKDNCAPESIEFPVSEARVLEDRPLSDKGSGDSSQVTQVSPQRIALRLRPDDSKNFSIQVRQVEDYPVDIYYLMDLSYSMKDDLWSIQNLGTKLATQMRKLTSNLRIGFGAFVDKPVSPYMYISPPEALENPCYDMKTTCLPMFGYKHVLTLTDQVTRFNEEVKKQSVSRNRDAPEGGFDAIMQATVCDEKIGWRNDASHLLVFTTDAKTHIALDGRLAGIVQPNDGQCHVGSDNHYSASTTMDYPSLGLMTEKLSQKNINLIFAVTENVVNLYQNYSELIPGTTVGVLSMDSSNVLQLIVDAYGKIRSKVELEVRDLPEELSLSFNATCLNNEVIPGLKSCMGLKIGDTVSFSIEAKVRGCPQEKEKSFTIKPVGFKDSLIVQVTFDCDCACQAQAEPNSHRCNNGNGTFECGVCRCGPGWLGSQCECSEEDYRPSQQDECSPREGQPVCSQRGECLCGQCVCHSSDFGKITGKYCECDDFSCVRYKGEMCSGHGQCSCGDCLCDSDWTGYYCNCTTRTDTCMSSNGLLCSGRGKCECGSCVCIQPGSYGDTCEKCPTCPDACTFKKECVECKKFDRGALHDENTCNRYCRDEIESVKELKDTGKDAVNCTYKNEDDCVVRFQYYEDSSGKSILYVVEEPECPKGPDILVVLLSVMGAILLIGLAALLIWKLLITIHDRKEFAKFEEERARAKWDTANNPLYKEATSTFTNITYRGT

## Recombinant human NC1 α4(IV) domain (NC1[α4(IV)1-229]) (domain or fragment)
[1]
  adhesion of UACC-903 melanoma cells on recombinant NC1 α4(IV) substratum; change after preincubation of the cells with an anti-αvβ3 integrin blocking antibody (10 µg/mL); irrelevant IgG had no effect: -38%
[2]
  pKd: 6.83
